This note sets out measurements from the supplement of paper PMC7125110.

B1: glmS ribozyme (parent)
chain: AUAAAAGCGCCAGAACUACAGAAAUGUAGUUGACGAGGAGGAGGUUUAUCGAAUUUUCGGCGGAUGCCUCCAAA

Holding throughout (conditions): with glucosamine-6-phosphate
The variants in series [1] derive from B1. In words: kcat; higher = faster cleavage; RNA array. In outline: (§1)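 Sequenced MiSeq chips were the platform: E. coli RNA polymerase transcribed barcoded ribozyme variants on them in situ, and a hybridised Cy3 probe tracked these at 37 °C. After glucosamine-6-phosphate (40 μM to 10 mM) in HEPES/KCl/Mg(OAc)2 buffer was flowed in, tiles were imaged over ~14 h. Signals normalised to baseline and to non-cleaving reference variants were reduced to per-tile medians and fit to one- or two-exponential decays to obtain kobs. kcat and KM were derived through weighted Michaelis–Menten fits across concentrations.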

The variants in series [2] derive from B1. In words: KM; higher = weaker cofactor use; RNA array. In outline: as §1
The variants in series [3] derive from B1. In words: self-cleavage kobs at 40 uM GlcN6P; higher = faster cleavage; RNA array. In outline: as §1
The variants in series [4] derive from B1. Kind of series: self-cleavage kobs at 160 uM GlcN6P; higher = faster cleavage; RNA array. Summed up:
as §1

Series [5] covers variants of B1. In words: self-cleavage kobs at 640 uM GlcN6P; higher = faster cleavage; RNA array. Summed up:
as §1

Series [6] covers variants of B1. In words: self-cleavage kobs at 2500 uM GlcN6P; higher = faster cleavage; RNA array. Summed up:
as §1

The variants in series [7] derive from B1. Kind of series: self-cleavage kobs at 10000 uM GlcN6P; higher = faster cleavage; RNA array. Summed up:
as §1

± gives the standard error. For some assays here: Variants at the floor of the assay were thinned out.

The kcat is the number of substrate molecules converted per active site and unit of time at saturation. As a reminder, the KM is the substrate concentration at which the rate is half of its maximum. As for A15U C16G, the kcat with glucosamine-6-phosphate [1] was found to be 0.00121 ± 0.00041 s⁻¹. Also, the KM with glucosamine-6-phosphate [2] is 2570 ± 1300 µM. Also, in the series with glucosamine-6-phosphate [3], the “self-cleavage kobs at 40 uM GlcN6P” value was found to be 2.88e-05 ± 1.4e-05 s⁻¹. Besides, the “self-cleavage kobs at 160 uM GlcN6P” value with glucosamine-6-phosphate [4] turned out to be 8.8e-05 ± 1.9e-05 s⁻¹. Besides, the “self-cleavage kobs at 640 uM GlcN6P” value with glucosamine-6-phosphate [5] was 0.000169 ± 5.1e-05 s⁻¹. The “self-cleavage kobs at 2500 uM GlcN6P” value with glucosamine-6-phosphate [6] was 0.000786 ± 0.0002 s⁻¹. Also, the “self-cleavage kobs at 10000 uM GlcN6P” value with glucosamine-6-phosphate [7] came to 0.000952 ± 0.00022 s⁻¹.

On to G29C A48C, for which the kcat with glucosamine-6-phosphate [1] turned out to be 1.23e-05 ± 3.5e-06 s⁻¹. Also, the “self-cleavage kobs at 40 uM GlcN6P” value with glucosamine-6-phosphate [3] was under 1e-05 s⁻¹. For the same variant, the “self-cleavage kobs at 160 uM GlcN6P” value with glucosamine-6-phosphate [4] is under 1e-05 s⁻¹.

For the variant G13U C71G, in the series with glucosamine-6-phosphate [1], the kcat amounted to 5.14e-05 ± 2.7e-06 s⁻¹. Further, in the series with glucosamine-6-phosphate [2], the KM is 155 ± 74 µM. The “self-cleavage kobs at 640 uM GlcN6P” value in the series with glucosamine-6-phosphate [5] turned out to be 3.7e-05 ± 9e-06 s⁻¹. Also, the “self-cleavage kobs at 2500 uM GlcN6P” value with glucosamine-6-phosphate [6] was determined as 5.35e-05 ± 1e-05 s⁻¹. Further, the “self-cleavage kobs at 10000 uM GlcN6P” value with glucosamine-6-phosphate [7] came to 5.01e-05 ± 5.6e-06 s⁻¹.

As to U55G G60U G63A G66C, the kcat with glucosamine-6-phosphate [1] came out at 1.16e-05 ± 1e-06 s⁻¹. The “self-cleavage kobs at 2500 uM GlcN6P” value with glucosamine-6-phosphate [6] is under 1e-05 s⁻¹.

Consider A12U U69G, for which, in the series with glucosamine-6-phosphate [1], the kcat was 0.000139 ± 1.8e-05 s⁻¹. Further, the KM in the series with glucosamine-6-phosphate [2] came out at 437 ± 200 µM. Moreover, the “self-cleavage kobs at 40 uM GlcN6P” value with glucosamine-6-phosphate [3] was 2.68e-05 ± 8.8e-06 s⁻¹. Also, in the series with glucosamine-6-phosphate [4], the “self-cleavage kobs at 160 uM GlcN6P” value is 2.7e-05 ± 8.8e-06 s⁻¹. Besides, in the series with glucosamine-6-phosphate [5], the “self-cleavage kobs at 640 uM GlcN6P” value is 9.2e-05 ± 1e-05 s⁻¹. In addition, the “self-cleavage kobs at 2500 uM GlcN6P” value with glucosamine-6-phosphate [6] turned out to be 0.000109 ± 1e-05 s⁻¹. Moreover, in the series with glucosamine-6-phosphate [7], the “self-cleavage kobs at 10000 uM GlcN6P” value came out at 0.000145 ± 1.5e-05 s⁻¹.

Take U56G A64G: in the series with glucosamine-6-phosphate [1], the kcat was 0.0177 ± 0.0051 s⁻¹. For the same variant, the KM with glucosamine-6-phosphate [2] was determined as 2680 ± 1000 µM. Besides, the “self-cleavage kobs at 40 uM GlcN6P” value with glucosamine-6-phosphate [3] is 0.000369 ± 6.8e-05 s⁻¹. Also, the “self-cleavage kobs at 160 uM GlcN6P” value with glucosamine-6-phosphate [4] was 0.000896 ± 0.00017 s⁻¹. The “self-cleavage kobs at 640 uM GlcN6P” value with glucosamine-6-phosphate [5] came to 0.00313 ± 0.00055 s⁻¹. For the same variant, in the series with glucosamine-6-phosphate [6], the “self-cleavage kobs at 2500 uM GlcN6P” value was 0.00817 ± 0.0015 s⁻¹. Moreover, the “self-cleavage kobs at 10000 uM GlcN6P” value in the series with glucosamine-6-phosphate [7] was found to be 0.0156 ± 0.0037 s⁻¹.

On to G37C C68U, for which, in the series with glucosamine-6-phosphate [1], the kcat was found to be 1.59e-05 ± 1.1e-06 s⁻¹. Besides, the “self-cleavage kobs at 40 uM GlcN6P” value with glucosamine-6-phosphate [3] is under 1e-05 s⁻¹.

On to A39G G43U, for which the kcat with glucosamine-6-phosphate [1] stood at 0.000168 ± 1e-05 s⁻¹. In addition, the KM with glucosamine-6-phosphate [2] worked out at 1170 ± 240 µM. For the same variant, the “self-cleavage kobs at 640 uM GlcN6P” value in the series with glucosamine-6-phosphate [5] was found to be 5.98e-05 ± 1.8e-05 s⁻¹. Besides, the “self-cleavage kobs at 2500 uM GlcN6P” value in the series with glucosamine-6-phosphate [6] was determined as 0.000119 ± 3.3e-05 s⁻¹. In addition, the “self-cleavage kobs at 10000 uM GlcN6P” value with glucosamine-6-phosphate [7] was 0.000149 ± 2.2e-05 s⁻¹.

Turning to G7U U55A, in the series with glucosamine-6-phosphate [1], the kcat is under 1e-05 s⁻¹. Moreover, the “self-cleavage kobs at 160 uM GlcN6P” value in the series with glucosamine-6-phosphate [4] is under 1e-05 s⁻¹. In addition, the “self-cleavage kobs at 640 uM GlcN6P” value with glucosamine-6-phosphate [5] is under 1e-05 s⁻¹. The “self-cleavage kobs at 2500 uM GlcN6P” value in the series with glucosamine-6-phosphate [6] was under 1e-05 s⁻¹.

On to G38C U47A, for which the kcat with glucosamine-6-phosphate [1] is under 1e-05 s⁻¹. Besides, the “self-cleavage kobs at 40 uM GlcN6P” value with glucosamine-6-phosphate [3] is under 1e-05 s⁻¹. Moreover, the “self-cleavage kobs at 160 uM GlcN6P” value with glucosamine-6-phosphate [4] is under 1e-05 s⁻¹. In the series with glucosamine-6-phosphate [6], the “self-cleavage kobs at 2500 uM GlcN6P” value is under 1e-05 s⁻¹. In the series with glucosamine-6-phosphate [7], the “self-cleavage kobs at 10000 uM GlcN6P” value was under 1e-05 s⁻¹.

On to U31A G41U, for which the kcat with glucosamine-6-phosphate [1] was 0.000384 ± 3.8e-05 s⁻¹. The KM with glucosamine-6-phosphate [2] was determined as 430 ± 89 µM. The “self-cleavage kobs at 40 uM GlcN6P” value in the series with glucosamine-6-phosphate [3] worked out at 2.67e-05 ± 1.2e-05 s⁻¹. Also, in the series with glucosamine-6-phosphate [4], the “self-cleavage kobs at 160 uM GlcN6P” value worked out at 0.000103 ± 2e-05 s⁻¹. In addition, the “self-cleavage kobs at 640 uM GlcN6P” value with glucosamine-6-phosphate [5] stood at 0.000289 ± 6.2e-05 s⁻¹. In addition, the “self-cleavage kobs at 2500 uM GlcN6P” value with glucosamine-6-phosphate [6] came to 0.00034 ± 8.7e-05 s⁻¹. The “self-cleavage kobs at 10000 uM GlcN6P” value with glucosamine-6-phosphate [7] is 0.000344 ± 6e-05 s⁻¹.

As for G41C A42U, in the series with glucosamine-6-phosphate [1], the kcat was 4.23e-05 ± 1.3e-06 s⁻¹. For the same variant, the KM in the series with glucosamine-6-phosphate [2] came out at 1050 ± 290 µM. Also, in the series with glucosamine-6-phosphate [4], the “self-cleavage kobs at 160 uM GlcN6P” value was under 1e-05 s⁻¹. For the same variant, in the series with glucosamine-6-phosphate [7], the “self-cleavage kobs at 10000 uM GlcN6P” value amounted to 3.82e-05 ± 6.7e-06 s⁻¹.

On to U31C G40U, for which, in the series with glucosamine-6-phosphate [1], the kcat came out at 0.000615 ± 0.00011 s⁻¹. Besides, the KM in the series with glucosamine-6-phosphate [2] is 2870 ± 920 µM. In the series with glucosamine-6-phosphate [4], the “self-cleavage kobs at 160 uM GlcN6P” value was found to be 4.05e-05 ± 1.4e-05 s⁻¹. Also, in the series with glucosamine-6-phosphate [5], the “self-cleavage kobs at 640 uM GlcN6P” value was found to be 0.000122 ± 2.1e-05 s⁻¹. Moreover, the “self-cleavage kobs at 2500 uM GlcN6P” value in the series with glucosamine-6-phosphate [6] came to 0.000236 ± 4.1e-05 s⁻¹. Besides, the “self-cleavage kobs at 10000 uM GlcN6P” value in the series with glucosamine-6-phosphate [7] stood at 0.000515 ± 6.3e-05 s⁻¹.

Consider A39U A53G, for which the kcat with glucosamine-6-phosphate [1] was determined as 0.0183 ± 0.0065 s⁻¹. Also, in the series with glucosamine-6-phosphate [2], the KM is 1410 ± 620 µM. In addition, the “self-cleavage kobs at 40 uM GlcN6P” value in the series with glucosamine-6-phosphate [3] worked out at 0.000648 ± 6.7e-05 s⁻¹. For the same variant, the “self-cleavage kobs at 160 uM GlcN6P” value with glucosamine-6-phosphate [4] was 0.00141 ± 0.00023 s⁻¹. Also, the “self-cleavage kobs at 640 uM GlcN6P” value in the series with glucosamine-6-phosphate [5] came to 0.0052 ± 0.00085 s⁻¹. Further, the “self-cleavage kobs at 2500 uM GlcN6P” value in the series with glucosamine-6-phosphate [6] was 0.0187 ± 0.0064 s⁻¹. Besides, the “self-cleavage kobs at 10000 uM GlcN6P” value with glucosamine-6-phosphate [7] was 0.0166 ± 0.0029 s⁻¹.
